What all share (assay): cell-based or functional assay
The target in assay [1] is CHK2(h) (human) (UniProt O96017).
For assay [2], the target named is MAPKAP-K3(h) (human) (UniProt Q16644).
In assay [3] the target is T1, PKCζ(h) (human) (UniProt Q05513).
T1 sequence (looked up): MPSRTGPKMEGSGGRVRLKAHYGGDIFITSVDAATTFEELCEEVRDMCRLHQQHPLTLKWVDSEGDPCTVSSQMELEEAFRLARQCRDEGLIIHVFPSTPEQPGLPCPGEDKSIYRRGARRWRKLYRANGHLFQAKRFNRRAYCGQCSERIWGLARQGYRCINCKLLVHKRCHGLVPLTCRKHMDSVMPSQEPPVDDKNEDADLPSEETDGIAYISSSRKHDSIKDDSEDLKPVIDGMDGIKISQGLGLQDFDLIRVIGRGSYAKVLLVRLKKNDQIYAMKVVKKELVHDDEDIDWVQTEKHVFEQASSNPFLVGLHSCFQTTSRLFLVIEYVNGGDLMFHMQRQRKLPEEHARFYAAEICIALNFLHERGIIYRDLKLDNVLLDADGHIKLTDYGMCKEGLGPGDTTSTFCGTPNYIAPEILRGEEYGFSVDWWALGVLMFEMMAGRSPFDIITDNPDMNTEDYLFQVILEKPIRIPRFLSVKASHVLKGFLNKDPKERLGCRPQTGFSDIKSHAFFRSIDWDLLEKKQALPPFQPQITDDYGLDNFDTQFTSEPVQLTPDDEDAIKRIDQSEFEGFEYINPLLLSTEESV

Assay [4] addresses T2, PKG1β(h) (human) (UniProt Q13976).
T2 sequence (looked up): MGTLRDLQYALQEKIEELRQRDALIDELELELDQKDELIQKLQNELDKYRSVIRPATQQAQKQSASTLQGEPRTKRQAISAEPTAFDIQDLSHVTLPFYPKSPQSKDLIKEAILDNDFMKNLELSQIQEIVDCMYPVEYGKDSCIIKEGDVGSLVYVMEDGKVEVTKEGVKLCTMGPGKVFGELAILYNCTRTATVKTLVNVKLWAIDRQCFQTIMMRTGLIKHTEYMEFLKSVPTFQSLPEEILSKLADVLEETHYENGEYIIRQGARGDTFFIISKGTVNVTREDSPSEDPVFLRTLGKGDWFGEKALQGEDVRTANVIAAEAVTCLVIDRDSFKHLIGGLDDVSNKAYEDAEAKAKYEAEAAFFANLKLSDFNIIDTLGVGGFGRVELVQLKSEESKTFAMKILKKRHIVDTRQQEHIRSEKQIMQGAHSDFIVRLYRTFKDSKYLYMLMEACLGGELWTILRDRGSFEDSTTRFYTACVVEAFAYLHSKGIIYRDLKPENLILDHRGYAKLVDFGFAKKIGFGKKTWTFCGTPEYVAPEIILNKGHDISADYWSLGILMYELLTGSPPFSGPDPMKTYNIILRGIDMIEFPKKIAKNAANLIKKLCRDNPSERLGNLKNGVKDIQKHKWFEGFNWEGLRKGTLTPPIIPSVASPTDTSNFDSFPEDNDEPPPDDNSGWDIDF

Assay [5] addresses Pyk2 (h) (human) (UniProt Q14289).
In assay [6] the target is ROCK-II(h) (human) (UniProt O75116).
Sequence of ROCK-II(h) (human) (O75116 11-552 limits assumed): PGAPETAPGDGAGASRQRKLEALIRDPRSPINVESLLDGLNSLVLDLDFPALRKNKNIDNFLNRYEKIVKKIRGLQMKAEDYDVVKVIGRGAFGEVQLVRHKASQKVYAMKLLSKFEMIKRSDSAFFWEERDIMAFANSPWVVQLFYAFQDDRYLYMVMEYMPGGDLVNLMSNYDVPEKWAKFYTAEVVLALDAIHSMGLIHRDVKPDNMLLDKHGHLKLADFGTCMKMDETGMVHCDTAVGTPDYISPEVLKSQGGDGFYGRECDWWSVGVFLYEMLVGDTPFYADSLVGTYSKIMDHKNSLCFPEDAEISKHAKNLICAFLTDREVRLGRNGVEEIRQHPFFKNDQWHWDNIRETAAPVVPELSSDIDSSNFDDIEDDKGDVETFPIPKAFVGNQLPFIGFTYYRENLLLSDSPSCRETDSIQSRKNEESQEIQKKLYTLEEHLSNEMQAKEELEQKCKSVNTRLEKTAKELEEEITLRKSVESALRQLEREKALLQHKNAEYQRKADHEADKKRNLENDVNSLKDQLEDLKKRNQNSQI
Assay [7] addresses T3, Ret(V804M)(h) (human) (UniProt P07949).
T3 sequence (looked up): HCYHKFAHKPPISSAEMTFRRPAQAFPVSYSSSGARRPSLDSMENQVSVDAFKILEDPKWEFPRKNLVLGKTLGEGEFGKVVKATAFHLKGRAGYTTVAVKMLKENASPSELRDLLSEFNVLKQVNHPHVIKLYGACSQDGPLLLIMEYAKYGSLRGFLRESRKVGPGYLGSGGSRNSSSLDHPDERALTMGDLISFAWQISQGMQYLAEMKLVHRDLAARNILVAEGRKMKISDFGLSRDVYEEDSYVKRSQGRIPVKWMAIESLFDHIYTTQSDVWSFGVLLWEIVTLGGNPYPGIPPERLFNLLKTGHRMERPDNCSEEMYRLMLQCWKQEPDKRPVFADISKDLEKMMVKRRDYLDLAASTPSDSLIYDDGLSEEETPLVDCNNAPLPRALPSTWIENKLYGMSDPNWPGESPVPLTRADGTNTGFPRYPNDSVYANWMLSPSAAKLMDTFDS

In assay [8] the target is Ros(h) (human) (UniProt P08922).
Sequence of Ros(h) (human) (P08922 1883-2347 limits assumed): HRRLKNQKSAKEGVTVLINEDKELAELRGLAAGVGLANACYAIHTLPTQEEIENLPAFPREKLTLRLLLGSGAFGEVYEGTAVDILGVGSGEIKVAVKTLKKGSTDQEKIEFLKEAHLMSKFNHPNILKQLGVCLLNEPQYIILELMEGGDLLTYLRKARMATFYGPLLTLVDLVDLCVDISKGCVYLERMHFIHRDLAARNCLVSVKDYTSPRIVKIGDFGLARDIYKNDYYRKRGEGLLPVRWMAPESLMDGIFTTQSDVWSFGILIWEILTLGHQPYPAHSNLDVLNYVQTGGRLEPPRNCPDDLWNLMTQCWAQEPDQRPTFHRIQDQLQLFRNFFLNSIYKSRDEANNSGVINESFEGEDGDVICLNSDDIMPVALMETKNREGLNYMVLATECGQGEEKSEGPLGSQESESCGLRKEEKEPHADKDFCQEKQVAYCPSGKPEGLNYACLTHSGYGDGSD
Assay [9] concerns the target SGK(h) (human) (UniProt O00141).
Assay [10] has as its target T4, TBK1(h) (human) (UniProt Q9UHD2).
T4 sequence (looked up): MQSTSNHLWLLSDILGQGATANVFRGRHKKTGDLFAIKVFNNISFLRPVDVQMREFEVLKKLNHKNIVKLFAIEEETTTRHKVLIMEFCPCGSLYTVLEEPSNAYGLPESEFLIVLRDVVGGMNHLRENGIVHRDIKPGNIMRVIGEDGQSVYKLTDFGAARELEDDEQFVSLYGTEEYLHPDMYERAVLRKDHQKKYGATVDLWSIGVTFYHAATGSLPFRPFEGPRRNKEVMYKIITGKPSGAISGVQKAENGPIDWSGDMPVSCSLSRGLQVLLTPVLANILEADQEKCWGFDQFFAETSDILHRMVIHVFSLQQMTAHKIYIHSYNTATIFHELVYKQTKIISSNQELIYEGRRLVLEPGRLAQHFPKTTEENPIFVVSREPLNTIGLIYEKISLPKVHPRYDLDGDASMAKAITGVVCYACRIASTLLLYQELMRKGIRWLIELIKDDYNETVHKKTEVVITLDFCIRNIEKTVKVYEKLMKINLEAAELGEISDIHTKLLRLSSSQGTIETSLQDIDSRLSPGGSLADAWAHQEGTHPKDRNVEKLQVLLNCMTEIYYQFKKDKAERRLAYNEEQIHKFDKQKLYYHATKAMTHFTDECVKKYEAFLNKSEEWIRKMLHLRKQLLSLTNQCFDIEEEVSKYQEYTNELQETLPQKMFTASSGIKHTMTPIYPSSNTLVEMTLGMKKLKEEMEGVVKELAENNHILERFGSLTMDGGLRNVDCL

Assay [11] concerns the target ZIPK(h) (human) (UniProt O43293).
In assay [12] the target is mTOR(h) (human) (UniProt P42345).
Sequence of mTOR(h) (human) (P42345 1362-2549 limits assumed): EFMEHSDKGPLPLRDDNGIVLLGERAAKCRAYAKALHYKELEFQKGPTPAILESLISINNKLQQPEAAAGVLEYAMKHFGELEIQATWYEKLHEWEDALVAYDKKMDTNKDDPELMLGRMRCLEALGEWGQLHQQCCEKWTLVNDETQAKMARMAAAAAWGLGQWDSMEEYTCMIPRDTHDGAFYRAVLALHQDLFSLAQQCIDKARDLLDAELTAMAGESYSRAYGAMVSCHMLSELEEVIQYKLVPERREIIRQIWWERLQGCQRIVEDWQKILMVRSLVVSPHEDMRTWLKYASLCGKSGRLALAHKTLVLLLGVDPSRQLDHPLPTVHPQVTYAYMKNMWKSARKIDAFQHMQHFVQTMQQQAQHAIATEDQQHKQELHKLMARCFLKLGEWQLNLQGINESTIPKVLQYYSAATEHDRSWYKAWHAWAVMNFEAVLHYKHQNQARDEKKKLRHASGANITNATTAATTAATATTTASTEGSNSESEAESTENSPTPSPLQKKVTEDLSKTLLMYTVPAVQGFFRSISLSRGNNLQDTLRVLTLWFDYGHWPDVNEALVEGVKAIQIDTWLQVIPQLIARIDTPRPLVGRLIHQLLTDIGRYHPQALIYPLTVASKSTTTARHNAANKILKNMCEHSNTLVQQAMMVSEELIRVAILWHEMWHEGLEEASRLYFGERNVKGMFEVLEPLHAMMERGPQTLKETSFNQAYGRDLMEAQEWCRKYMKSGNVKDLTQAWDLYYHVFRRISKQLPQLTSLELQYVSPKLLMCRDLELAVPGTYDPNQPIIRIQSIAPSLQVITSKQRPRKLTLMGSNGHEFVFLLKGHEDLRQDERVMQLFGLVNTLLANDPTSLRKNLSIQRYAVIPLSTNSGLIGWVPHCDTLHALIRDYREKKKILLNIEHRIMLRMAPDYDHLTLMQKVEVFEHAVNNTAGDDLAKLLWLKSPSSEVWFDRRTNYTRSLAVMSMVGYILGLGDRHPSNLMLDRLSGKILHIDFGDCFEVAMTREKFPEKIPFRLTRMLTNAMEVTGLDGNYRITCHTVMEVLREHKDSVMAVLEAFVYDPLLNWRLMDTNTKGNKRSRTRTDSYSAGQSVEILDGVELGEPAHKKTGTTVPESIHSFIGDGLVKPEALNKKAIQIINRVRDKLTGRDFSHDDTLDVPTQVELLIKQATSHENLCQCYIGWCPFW
The target of assay [13] is mTOR/FKBP12(h) (human) (UniProt P42345).

This passage reports % activity, 100 µM and inhibition of kinase activity results from patent US20140072613A1, “Compositions and Methods for Treating Cutaneous Scarring” (priority 2012, published 2014).

Sequence of MAPKAP-K3(h) (human) (Q16644 whole entry): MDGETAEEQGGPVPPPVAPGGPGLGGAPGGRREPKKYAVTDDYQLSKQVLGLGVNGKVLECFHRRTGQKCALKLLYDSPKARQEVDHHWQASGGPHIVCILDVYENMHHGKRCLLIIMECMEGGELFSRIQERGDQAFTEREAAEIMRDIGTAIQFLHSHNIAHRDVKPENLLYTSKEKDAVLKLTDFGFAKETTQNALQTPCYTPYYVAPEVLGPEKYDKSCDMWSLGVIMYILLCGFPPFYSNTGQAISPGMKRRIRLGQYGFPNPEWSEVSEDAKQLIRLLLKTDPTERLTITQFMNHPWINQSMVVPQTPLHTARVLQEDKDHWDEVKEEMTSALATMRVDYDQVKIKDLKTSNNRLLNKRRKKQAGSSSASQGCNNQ
Sequence of SGK(h) (human) (O00141 60-431 limits assumed): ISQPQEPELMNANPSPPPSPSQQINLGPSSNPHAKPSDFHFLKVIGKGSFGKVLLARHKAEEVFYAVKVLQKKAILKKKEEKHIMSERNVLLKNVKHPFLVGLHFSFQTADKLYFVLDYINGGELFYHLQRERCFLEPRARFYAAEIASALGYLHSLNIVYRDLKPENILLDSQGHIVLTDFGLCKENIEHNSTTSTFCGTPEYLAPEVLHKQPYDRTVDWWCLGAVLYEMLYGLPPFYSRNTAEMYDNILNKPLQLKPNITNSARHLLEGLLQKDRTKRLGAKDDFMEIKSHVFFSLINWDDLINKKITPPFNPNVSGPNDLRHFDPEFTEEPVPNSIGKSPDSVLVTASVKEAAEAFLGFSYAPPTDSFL
Sequence of Pyk2 (h) (human) (Q14289 whole entry): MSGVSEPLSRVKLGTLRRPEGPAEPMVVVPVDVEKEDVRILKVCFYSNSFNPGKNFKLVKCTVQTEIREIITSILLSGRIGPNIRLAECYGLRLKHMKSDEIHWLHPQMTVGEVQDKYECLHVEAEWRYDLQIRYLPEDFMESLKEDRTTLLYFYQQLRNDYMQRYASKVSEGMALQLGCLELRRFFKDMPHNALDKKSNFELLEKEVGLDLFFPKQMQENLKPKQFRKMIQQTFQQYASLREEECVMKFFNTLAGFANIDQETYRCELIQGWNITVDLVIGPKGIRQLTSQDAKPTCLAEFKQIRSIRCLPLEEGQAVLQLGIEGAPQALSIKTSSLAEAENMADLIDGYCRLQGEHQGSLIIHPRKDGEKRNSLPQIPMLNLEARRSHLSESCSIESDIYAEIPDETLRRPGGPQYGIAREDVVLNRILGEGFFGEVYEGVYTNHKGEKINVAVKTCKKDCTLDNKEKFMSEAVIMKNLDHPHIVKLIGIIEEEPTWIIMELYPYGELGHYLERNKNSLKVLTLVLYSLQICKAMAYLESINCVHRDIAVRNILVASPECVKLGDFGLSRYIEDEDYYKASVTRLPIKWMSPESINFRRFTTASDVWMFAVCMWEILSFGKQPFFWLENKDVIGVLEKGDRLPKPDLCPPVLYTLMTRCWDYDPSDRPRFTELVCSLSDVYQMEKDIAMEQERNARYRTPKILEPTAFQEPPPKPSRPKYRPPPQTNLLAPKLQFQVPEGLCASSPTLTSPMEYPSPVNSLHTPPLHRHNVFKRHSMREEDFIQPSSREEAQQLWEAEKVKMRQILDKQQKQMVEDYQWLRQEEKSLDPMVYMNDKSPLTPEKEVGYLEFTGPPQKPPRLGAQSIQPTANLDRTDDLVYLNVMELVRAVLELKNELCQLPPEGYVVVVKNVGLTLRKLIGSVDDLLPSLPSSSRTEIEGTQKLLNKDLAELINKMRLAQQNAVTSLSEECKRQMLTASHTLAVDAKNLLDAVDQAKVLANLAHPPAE
Sequence of ZIPK(h) (human) (O43293 whole entry): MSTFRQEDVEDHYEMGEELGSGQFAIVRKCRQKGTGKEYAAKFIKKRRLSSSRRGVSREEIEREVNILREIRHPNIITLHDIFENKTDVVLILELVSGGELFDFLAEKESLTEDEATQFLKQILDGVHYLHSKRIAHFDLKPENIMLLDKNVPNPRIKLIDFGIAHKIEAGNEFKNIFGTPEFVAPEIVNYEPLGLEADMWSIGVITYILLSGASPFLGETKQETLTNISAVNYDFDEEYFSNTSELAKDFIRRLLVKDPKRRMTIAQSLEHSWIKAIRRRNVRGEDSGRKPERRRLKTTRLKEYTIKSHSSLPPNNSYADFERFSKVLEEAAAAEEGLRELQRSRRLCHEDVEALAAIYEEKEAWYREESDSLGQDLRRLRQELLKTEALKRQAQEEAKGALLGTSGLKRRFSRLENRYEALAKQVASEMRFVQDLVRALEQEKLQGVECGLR
Sequence of CHK2(h) (human) (O96017 5-543 limits assumed): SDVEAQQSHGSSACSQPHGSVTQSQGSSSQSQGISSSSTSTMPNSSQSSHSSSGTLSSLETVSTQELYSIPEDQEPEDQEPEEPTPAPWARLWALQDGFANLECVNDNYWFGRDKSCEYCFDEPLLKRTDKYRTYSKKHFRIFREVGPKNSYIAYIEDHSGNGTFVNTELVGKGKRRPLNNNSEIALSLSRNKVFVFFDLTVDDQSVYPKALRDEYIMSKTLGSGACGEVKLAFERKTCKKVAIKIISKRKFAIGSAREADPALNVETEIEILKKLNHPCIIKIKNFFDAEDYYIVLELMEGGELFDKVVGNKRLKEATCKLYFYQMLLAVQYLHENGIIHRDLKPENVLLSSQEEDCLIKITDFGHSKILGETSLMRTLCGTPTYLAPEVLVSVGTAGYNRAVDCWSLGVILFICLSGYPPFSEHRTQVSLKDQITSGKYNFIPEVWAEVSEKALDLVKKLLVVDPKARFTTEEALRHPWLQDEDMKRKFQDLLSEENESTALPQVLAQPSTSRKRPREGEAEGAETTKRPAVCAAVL

MMI-0500 (peptide): the % activity, 100 µM in assay [1] was 13%; in [2], 9%; in assay [3], 7%; in assay [4], 24%; in [5], 46%; in assay [6] it was 2%. Moreover, the % activity, 100 µM in assay [7] was 36%; in [8], 150%; in assay [9] it was 2%; in [10], 16%; in [11], 1%; in assay [12], 135%. Also, in [13], the % activity, 100 µM is 140%. The inhibition of kinase activity at 100 µM in [2] was > 65%.
